Broadly, the Km is the concentration of substrate that gives half-maximal velocity. The kcat is the number of substrate molecules converted per active site and unit of time at saturation. As a reminder, the kcat/Km is the second-order rate constant that governs catalysis at low substrate concentration.

The results in this text go back to paper PMC7175128, “Rational Engineering of the Substrate Specificity of a Thermostable D-Hydantoinase (Dihydropyrimidinase)” (High-Throughput, 2020).

One series concerns T1, O=C1CCNC(=O)N1.
T1 construct: recombinant from pET-Hyd in E. coli BL21(DE3); 52 kDa; heat-treated, ultrafiltered, desalted
Kind of series: purified protein. In kind it is biochemical, Geobacillus stearothermophilus. The note with it: 0.1 M MOPS pH 8.0, 0.5 mM MnSO4, temperature of kinetics not stated (activity assays at 60 °C).

The subject of series [1] is T2, O=C1NC(=O)C(Cc2c[nH]c3ccccc23)N1.
T2 construct: recombinant from pET-Hyd in E. coli BL21(DE3); 52 kDa; heat-treated, ultrafiltered, desalted
Kind of series: purified protein. In kind it is biochemical, Geobacillus stearothermophilus. The note with it: 0.1 M MOPS pH 8.0, 0.5 mM MnSO4, temperature of kinetics not stated (activity assays at 60 °C).

Regarding “D-hydantoinase (dihydropyrimidinase) of G. stearothermophilus ATCC 31783 (Geobacillus stearothermophilus)”, in the series with O=C1CCNC(=O)N1, the Km stood at 970 ± 220 µM, the kcat is 11.2 ± 0.7 s⁻¹ and the kcat/Km is 11300 ± 2200 M⁻¹ s⁻¹.
As to “D-hydantoinase (dihydropyrimidinase) of G. stearothermophilus ATCC 31783 (Geobacillus stearothermophilus; F159A)”, in the series on O=C1CCNC(=O)N1, the Km worked out at 2890 ± 1270 µM, the kcat amounted to 21.8 ± 2.6 s⁻¹ and the kcat/Km amounted to 7530 ± 2500 M⁻¹ s⁻¹. For the same substance, in series [1], the Km was 600 ± 580 µM, the kcat worked out at 4.16 ± 0.60 s⁻¹ and the kcat/Km was 6890 ± 5830 M⁻¹ s⁻¹.
As for “D-hydantoinase (dihydropyrimidinase) of G. stearothermophilus ATCC 31783 (Geobacillus stearothermophilus; F159A/W287A)”, in the series on O=C1CCNC(=O)N1, the Km worked out at 5610 ± 2320 µM, the kcat was 6.16 ± 1 s⁻¹ and the kcat/Km worked out at 1100 ± 300 M⁻¹ s⁻¹. Moreover, in series [1], the Km worked out at 4300 ± 400 µM, the kcat came to 12.5 ± 0.50 s⁻¹ and the kcat/Km amounted to 2900 ± 170 M⁻¹ s⁻¹.
On to “D-hydantoinase (dihydropyrimidinase) of G. stearothermophilus ATCC 31783 (Geobacillus stearothermophilus; I190A)”, for which, in the series on O=C1CCNC(=O)N1, the Km is 1120 ± 610 µM, the kcat was 7.99 ± 0.9 s⁻¹ and the kcat/Km came out at 7090 ± 3200 M⁻¹ s⁻¹.
“D-hydantoinase (dihydropyrimidinase) of G. stearothermophilus ATCC 31783 (Geobacillus stearothermophilus; W287A)”: in the series with O=C1CCNC(=O)N1, the Km turned out to be 430 ± 130 µM, the kcat is 2.76 ± 0.17 s⁻¹ and the kcat/Km was found to be 6530 ± 1830 M⁻¹ s⁻¹. In series [1], the Km stood at 1660 ± 850 µM, the kcat was determined as 6.83 ± 0.97 s⁻¹ and the kcat/Km came out at 4130 ± 1630 M⁻¹ s⁻¹.
